{"source": "patent US20240252614A1", "about": "(Pfizer, published 2024)", "key": {"PIV1046 [1]": {"molecular_target": "T1, PIV1046 (PIV1)", "T1 construct": "A466V, S473V", "experiment": "BLI, 56C stress", "experimental": "(§1) All measurements were conducted at 30° C. temperature in 96-well black plates (Corning, Corning, NY) with a final volume of 240 μL per well at a constant agitation rate of 1000 RPM.\n(§2) Conformation integrity of PIV1 F protein mutants were evaluated by a thermal stress experiment. Crude cell culture supernatants were normalized based on the results of the titer quantitation and then incubated for 1 hour at room temperature and two higher temperatures. For the initial testing of PIV1 mutants, the two temperatures were 50° C. and 53° C. […] Anti-Human IgG Fc Capture (AHC) biosensors were first equilibrated in PB for before being dipped into more PB to establish the initial baseline. […] The mAb-bound biosensors were then dipped into the thermal stresses cell culture supernatants for 5 minutes."}, "PIV1045 [2]": {"molecular_target": "T2, PIV1045 (PIV1)", "T2 construct": "Q92L, G134A", "experiment": "BLI, 56C stress", "experimental": "as §1, §2"}, "PIV1042 [3]": {"molecular_target": "T3, PIV1042 (PIV1)", "T3 construct": "Q92A", "experiment": "BLI, 56C stress", "experimental": "as §1, §2"}, "PIV1043 [4]": {"molecular_target": "T4, PIV1043 (PIV1)", "T4 construct": "Q92A, G134A", "experiment": "BLI, 56C stress", "experimental": "as §1, §2"}, "PIV1044 [5]": {"molecular_target": "T5, PIV1044 (PIV1)", "T5 construct": "Q92L", "experiment": "BLI, 56C stress", "experimental": "as §1, §2"}, "PIV1046 [6]": {"molecular_target": "T1, PIV1046", "experiment": "BLI, no stress;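 note: binding of thermally stressed PIV1 F mutant supernatant to mAb on AHC biosensors for 5 min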", "experimental": "as §1, §2"}, "PIV1045 [7]": {"molecular_target": "T2, PIV1045", "experiment": "BLI, no stress", "experimental": "as §1, §2"}, "PIV1042 [8]": {"molecular_target": "T3, PIV1042", "experiment": "BLI, no stress", "experimental": "as §1, §2"}, "PIV1043 [9]": {"molecular_target": "T4, PIV1043", "experiment": "BLI, no stress", "experimental": "as §1, §2"}, "PIV1044 [10]": {"molecular_target": "T5, PIV1044", "experiment": "BLI, no stress", "experimental": "as §1, §2"}, "PIV1039": {"molecular_target": "T6, PIV1039 (PIV1)", "T6 construct": "A128P", "experiment": "BLI, 50C stress;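 note: binding of thermally stressed PIV1 F mutant supernatant to mAb on AHC biosensors for 5 min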", "experimental": "as §1, §2"}, "PIV1028": {"molecular_target": "T7, PIV1028 (PIV1)", "T7 construct": "A480L", "experiment": "BLI, 50C stress", "experimental": "as §1, §2"}, "PIV1036": {"molecular_target": "T8, PIV1036 (PIV1)", "T8 construct": "G134A", "experiment": "BLI, 50C stress", "experimental": "as §1, §2"}, "PIV1014": {"molecular_target": "T9, PIV1014 (PIV1)", "T9 construct": "Q92C-G134C", "experiment": "BLI, 50C stress", "experimental": "as §1, §2"}, "PIV1030": {"molecular_target": "T10, PIV1030 (PIV1)", "T10 construct": "A466L, S473A", "experiment": "BLI, 50C stress", "experimental": "as §1, §2"}, "PIV1031": {"molecular_target": "T11, PIV1031 (PIV1)", "T11 construct": "A466L, S473L", "experiment": "BLI, 50C stress", "experimental": "as §1, §2"}, "PIV1033": {"molecular_target": "T12, PIV1033 (PIV1)", "T12 construct": "T198A", "experiment": "BLI, 50C stress", "experimental": "as §1, §2"}, "PIV1027": {"molecular_target": "T13, PIV1027 (PIV1)", "T13 construct": "S473L", "experiment": "BLI, 50C stress", "experimental": "as §1, §2"}, "PIV1026": {"molecular_target": "T14, PIV1026 (PIV1)", "T14 construct": "S473V", "experiment": "BLI, 50C stress", "experimental": "as §1, §2"}, "PIV1024": {"molecular_target": "T15, PIV1024 (PIV1)", "T15 construct": "A466V", "experiment": "BLI, 50C stress", "experimental": "as §1, §2"}, "PIV1023": {"molecular_target": "T16, PIV1023 (PIV1)", "T16 construct": "A466L", "experiment": "BLI, 50C stress", "experimental": "as §1, §2"}, "hMPV108": {"molecular_target": "T17, hMPV108 (hMPV B, UniProt Q6WB98 19-102)", "T17 construct": "T365I", "experiment": "BLI, 56C stress", "experimental": "as §1\nConformation integrity of hMPV B F protein mutants were evaluated by a thermal stress experiment. Crude cell culture supernatants were normalized based on the results of the titer quantitation and then incubated for 1 hour at room temperature and two higher temperatures. For the testing of hMPV B single mutants, the two temperatures were 53° C. and 56° C. After the incubation, the protein mutants were probed with prefusion specific monoclonal antibody hMPV-2 by OCTET HTX. Anti-Human IgG Fc Capture (AHC) biosensors were first equilibrated in PB before being dipped into more PB for to establish the initial baseline. Biosensors were incubated with hMPV-2 before being equilibrated in PB to establish the experimental baseline. The mAb-bound biosensors were then dipped into the thermal stresses cell culture supernatants for 5 minutes."}}, "data": [{"binder": "PIV1-8 mAb (antibody, V domains shown, human IgG1; also called hPIV1-8 mAb; hPIV1-8) VH: QVQLVQSGAEVKKPGSSVKVSCEASGGTFSNYVISWVRQAPGQGLEWMGGIIPVFATAKYAQKFQGRVTIIADQSTNTAYLELSSLRSDDTAVYFCASVDSGGTWWDAFAIWGQGTMVTVSS VL: QAVVTQPRSVSGSPGQAVTISCTGTSSDVGGYNYVSWYQHHPGKAPKLIIYDVTKRPSGVPDRFSGSKSGNTASLTISGLQTEYEADYYCCSYAGSYTLVFGGGTKLTVLG", "values": [{"measurement": "Response Shift", "setting": "PIV1046 [1]", "value": -0.091, "unit": "nm"}, {"measurement": "Response Shift", "setting": "PIV1045 [2]", "value": -0.095, "unit": "nm"}, {"measurement": "Response Shift", "setting": "PIV1042 [3]", "value": -0.103, "unit": "nm"}, {"measurement": "Response Shift", "setting": "PIV1043 [4]", "value": -0.102, "unit": "nm"}, {"measurement": "Response Shift", "setting": "PIV1044 [5]", "value": -0.122, "unit": "nm"}, {"measurement": "Response Shift", "setting": "PIV1046 [6]", "value": 0.584, "unit": "nm"}, {"measurement": "Response Shift", "setting": "PIV1045 [7]", "value": 0.635, "unit": "nm"}, {"measurement": "Response Shift", "setting": "PIV1042 [8]", "value": 0.192, "unit": "nm"}, {"measurement": "Response Shift", "setting": "PIV1043 [9]", "value": 0.725, "unit": "nm"}, {"measurement": "Response Shift", "setting": "PIV1044 [10]", "value": 0.162, "unit": "nm"}, {"measurement": "Response Shift", "setting": "PIV1039", "value": -0.039, "unit": "nm"}, {"measurement": "Response Shift", "setting": "PIV1028", "value": -0.018, "unit": "nm"}, {"measurement": "Response Shift", "setting": "PIV1036", "value": 0.007, "unit": "nm"}, {"measurement": "Response Shift", "setting": "PIV1014", "value": 0.011, "unit": "nm"}, {"measurement": "Response Shift", "setting": "PIV1030", "value": -0.031, "unit": "nm"}, {"measurement": "Response Shift", "setting": "PIV1031", "value": 0.72, "unit": "nm"}, {"measurement": "Response Shift", "setting": "PIV1033", "value": -0.027, "unit": "nm"}, {"measurement": "Response Shift", "setting": "PIV1027", "value": -0.022, "unit": "nm"}, {"measurement": "Response Shift", "setting": "PIV1026", "value": -0.022, "unit": "nm"}, {"measurement": "Response Shift", "setting": "PIV1024", "value": 0.022, "unit": "nm"}, {"measurement": "Response Shift", "setting": "PIV1023", "value": 0.018, "unit": "nm"}]}, {"binder": "hMPV-2 mAb (antibody, V domains shown, human IgG1) VH: QVQLQQSGAEVKKPGASVKVSCKASGYTFTSYGISWVRQAPGQGLEWMGWISGYNGNTNYAQTFQGTFTMTTDTSTSTAYMELRRLRSGDTAVYYCARDRYYASGSYNGMDVWGQGTTVTVSS VL: QSALTQPPSASGAPGQRVTVSCSGSSSNVGSSSVYWYQQLPGTAPKLLIYRNNQRPSGVPDRFSGSKSGTSASLAISGLRSEDEADYYCAAWDDSLSGWVFGGGTKLTVLG", "values": [{"measurement": "Response Shift", "setting": "hMPV108", "value": 0.04, "unit": "nm"}]}]}
